# Reference: US20240376639A1 (ELASMOGEN, published 2024)
# Where a chain is given by its changes, count along the chain named.
# B1: E4V2F3 (VNAR)
# VNAR: ASVNQSPSSLSASVGDRVTITCVLTDTNYWYSTSWFRKNPGTTNEDRIIISGRYVESVNNGPKSFTLTISSLQPEDFATYYCRAWTSFEEQVKDVYGGGTKVEIK
# notes: Clone from the E4-V2 humanised library
# B2: E4V2Ee8 (VNAR)
# VNAR: ASVNQSPSSLSASVGDRVTITCVLTGASYWYSTSWFRKNPGTTDEESMSNGGRYVESVNKRPMSFTLTISSLQPEDFATYYCRAWTSFEEQVKDVYGGGTKVEIK
# notes: as for B1
# B3: E4V2Gg11 (VNAR)
# VNAR: B2 VNAR with A27T, S28R, Y31F, E46D, M48I, K60N, R61G, P62S
# notes: as for B1
# B4: E4V2D10 (VNAR)
# VNAR: B2 VNAR with S28G, Y31F, S32A, T43S, E45K, M48I, G51S, P62S
# notes: as for B1
# B5: E4V2Cc8 (VNAR)
# VNAR: ASVNQSPSSLSASVGDRVTITCVLTSAGYLYATSWFRKNPGTSDKESMIIGRRYVESVNNRSMSFTLTISSLQPEDFATYYCRAWTSFEEQVKDVYGGGTKVEIK
# notes: as for B1
# B6: E4V2B9 (VNAR)
# VNAR: B1 VNAR with D26G, N28G, T43S, S51G, N60K, P62T
# notes: as for B1
# B7: E4V2Ee6 (VNAR)
# VNAR: B2 VNAR with G26D, A27T, S28R, W30L, S32A, D44N, E45K, M48I, P62S
# notes: as for B1
# B8: E4V2Cc9 (VNAR)
# VNAR: B1 VNAR with D26G, N28E, W30L, T43P, I48M, I50N, S51G, N60K, P62T, K63M
# notes: as for B1
# B9: E4 WT (VNAR)
# VNAR: ASVNQTPRTATKETGESLTINCVLTDTKYLYSTSWFRKNPGTTDWERMSIGGRYVESVNKGAKSFSLRIKDLTVADSATYICRAWTSFEEQVKDVYGAGTVLTVN
# notes: also called pre-humanised parental clone E4 WT; Wt DLL4 VNAR
# B10: 78WT (VNAR)
# VNAR: TRVDQTPRTATKETGESLTINCVLTDTNYSLYATSWFRKNPGTTDWERMSIGGRYVESVNKGAKSFSLRIKDLTVADSATYICRAVWFPYFISDMWDVYGAGTVLTVN
# notes: Parental non-humanised VNAR 78; also called native (WT) anti-DLL4 VNAR 78
# B11: 78-V3 (VNAR)
# VNAR: TRVDQSPSSLSASVGDRVTITCVLTDTNYSLYATSWYQQKPGKTDWERMSIGGRYVESVNKGAKSFTLTISSLQPEDFATYYCRAVWFPYFISDMWDVYGGGTKVEIK
# notes: Humanised VNAR (soloMER), poly-histidine tagged, expressed in E. coli; also called soloMER 78 variant V3
# B12: 78-V5 (VNAR)
# VNAR: B11 VNAR with Y55F, V56S, E57G, V59G, N60S
# notes: Humanised VNAR (soloMER), poly-histidine tagged, expressed in E. coli; also called soloMER 78 variant V5
# B13: 78-V4 (VNAR)
# VNAR: B11 VNAR with Y37F, Q38R, Q39K, K40N, K43T, Y55F, V56S, E57G, V59G, N60S
# notes: Humanised VNAR (soloMER), poly-histidine tagged, expressed in E. coli; also called soloMER 78 variant V4
# B14: P3A1 WT dimer HisMyc (other)
# VNAR 1: TRVDQTPRTATKETGESLTINCVLTDTSYGLYSTSWFRKNPGTTDWERMSIGGRYVESVNKGAKSFSLRIKDLTVADSATYYCKAREARHPWLRQWYDGAGTVLTVN
# VNAR 2: B14 VNAR 1
# modifications: In the real molecule the two VNAR copies form one polypeptide, joined by an unprinted short peptide linker and carrying a HisMyc tag. They are given here as two separate chains because the linker letters are unknown.
# notes: VNAR dimer in one chain; also called parental WT clone P3A1; WT non-humanised P3A1 clone; not shown: The short peptide linker joining the two P3A1 copies and the HisMyc tag
# B15: P3A1 V1 dimer HisMyc (other)
# VNAR 1: TRVDQSPSSLSASVGDRVTITCVLTDTSYGLYSTSWFRKNPGTTDWERMSIGGRYVESVNKGAKSFTLTISSLQPEDFATYYCKAREARHPWLRQWYDGAGTKVEIK
# VNAR 2: B15 VNAR 1
# modifications: In the real molecule the two VNAR copies form one polypeptide, joined by an unprinted short peptide linker and carrying a HisMyc tag. They are given here as two separate chains because the linker letters are unknown.
# notes: 2x P3A1 V1 joined with a short peptide linker, with a HisMyc tag; expressed in bacteria; not shown: The short peptide linker joining the two P3A1 V1 copies and the HisMyc tag
# B16: D3 V2 (VNAR)
# VNAR: ASVNQSPSSLSASVGDRVTITCVLTDTSYGLYSTSWFRKNPGTTDWERMSIGGRYVESVNKRAKSFTLTISSLQPEDFATYYCKAQSGMAISTGSGHGYNWYDGAGTKVEIK
# notes: Humanised VNAR (soloMER)
# B17: D3 V5 (VNAR)
# VNAR: B16 VNAR with F37Y, R38Q, K39Q, N40K, Y55F, V56S, E57G, V59G, N60S
# notes: Humanised VNAR (soloMER)
# B18: D3 V4 (VNAR)
# VNAR: B16 VNAR with F37Y, R38Q, K39Q, N40K
# notes: Humanised VNAR (soloMER)
# Target: T1, human DLL4 (human, UniProt Q9NR61 27-524, limits assumed)
# T1 construct: Antigen of the monoclonal phage ELISA; also called hDLL4
# Experiment: monoclonal phage ELISA on hDLL4, with HSA as control antigen, OD450
# T1 sequence (Q9NR61 27-524 limits assumed): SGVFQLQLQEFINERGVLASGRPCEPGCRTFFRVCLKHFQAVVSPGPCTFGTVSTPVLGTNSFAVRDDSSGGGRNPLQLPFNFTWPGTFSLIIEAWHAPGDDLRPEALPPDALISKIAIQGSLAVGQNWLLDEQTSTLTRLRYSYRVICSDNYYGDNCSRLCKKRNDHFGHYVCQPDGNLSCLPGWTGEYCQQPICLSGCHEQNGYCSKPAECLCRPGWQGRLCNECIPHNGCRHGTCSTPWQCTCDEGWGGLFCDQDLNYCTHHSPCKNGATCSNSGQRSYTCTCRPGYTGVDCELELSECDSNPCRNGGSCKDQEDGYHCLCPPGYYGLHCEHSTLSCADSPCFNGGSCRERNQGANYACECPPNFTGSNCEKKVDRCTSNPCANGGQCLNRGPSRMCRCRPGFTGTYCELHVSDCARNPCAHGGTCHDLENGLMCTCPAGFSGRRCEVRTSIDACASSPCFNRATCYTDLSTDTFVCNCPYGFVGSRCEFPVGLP
row,Binder,binding result
1,B1,binds
2,B2,binds
3,B3,binds
4,B4,binds
5,B5,binds
6,B6,binds
7,B7,binds
8,B8,binds
9,B9,binds

# Target: hDLL4-Fc (human, UniProt Q9NR61 27-524, limits assumed)
# Experiment: direct binding ELISA on 1 µg/mL coated hDLL4-Fc, protein input unquantified, detection with anti-poly-histidine-HRP
# Chain of hDLL4-Fc (Q9NR61 27-524 limits assumed): as above
row,Binder,binding result
1,B10,binds
2,B9,binds
3,B11,binds
4,B12,binds
5,B13,binds

# Target: T2, human ROR1 (human, UniProt Q01973 30-403, limits assumed)
# T2 construct: The general ELISA protocol coats hROR1-Fc; also called hROR1; huROR1
# Experiment: BIAcore (SPR)
# T2 sequence (Q01973 30-403 limits assumed): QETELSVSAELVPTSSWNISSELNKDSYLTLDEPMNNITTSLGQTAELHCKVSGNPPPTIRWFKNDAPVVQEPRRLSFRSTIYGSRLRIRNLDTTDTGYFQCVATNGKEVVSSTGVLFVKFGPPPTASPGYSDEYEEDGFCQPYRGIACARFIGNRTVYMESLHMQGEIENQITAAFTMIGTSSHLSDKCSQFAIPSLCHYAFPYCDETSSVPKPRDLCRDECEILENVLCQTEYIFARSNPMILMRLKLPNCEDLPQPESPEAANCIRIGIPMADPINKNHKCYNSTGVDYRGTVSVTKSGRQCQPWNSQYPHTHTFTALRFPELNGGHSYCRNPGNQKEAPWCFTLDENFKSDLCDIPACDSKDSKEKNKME
row,Binder,Kd [nM]
1,B14,0.302
2,B15,0.179

# Target: T2, human ROR1
# Experiment: BLI against hROR1
Binder,Kd [nM],kon [M⁻¹ s⁻¹]
B16,18.9,1.85e+06
B17,36.2,
B18,58.5,1.38e+06

# Target: T2, human ROR1
# Experiment: kinetics against hROR1; method not named in the table (kdis heading as in the BLI table)
Binder,Kd [nM],koff [s⁻¹],kon [M⁻¹ s⁻¹]
B16,15.6,0.0238,1.52e+06

# Target: T3, Human Serum Albumin (human, UniProt P02768 25-609)
# T3 construct: Non-target control antigen in the ELISAs; also called HSA
# Experiment: monoclonal phage ELISA, HSA as control antigen, OD450
row,Binder,binding result
1,B1,no binding
2,B2,no binding
3,B3,no binding
4,B4,no binding
5,B5,no binding
6,B7,no binding
7,B8,no binding
8,B9,no binding
